What was measured:
EF-Tu = target: T1, EF-Tu (Mycobacterium tuberculosis, UniProt P9WNN1); assay: biochemical; assay type: binding
T1 construct: gene tuf; full-length

EF-Ts (Escherichia coli) = EF-Ts (Escherichia coli) (UniProt P0A6P1); conditions: cited from earlier work
[1] = target: T2, Mycobacterium tuberculosis elongation factor EF-Tu (Mycobacterium tuberculosis, UniProt P9WNN1 1-396); assay: ITC; conditions: both partners purified
T2 construct: also called Mtb EF-Tu
T2 sequence (P9WNN1 whole entry): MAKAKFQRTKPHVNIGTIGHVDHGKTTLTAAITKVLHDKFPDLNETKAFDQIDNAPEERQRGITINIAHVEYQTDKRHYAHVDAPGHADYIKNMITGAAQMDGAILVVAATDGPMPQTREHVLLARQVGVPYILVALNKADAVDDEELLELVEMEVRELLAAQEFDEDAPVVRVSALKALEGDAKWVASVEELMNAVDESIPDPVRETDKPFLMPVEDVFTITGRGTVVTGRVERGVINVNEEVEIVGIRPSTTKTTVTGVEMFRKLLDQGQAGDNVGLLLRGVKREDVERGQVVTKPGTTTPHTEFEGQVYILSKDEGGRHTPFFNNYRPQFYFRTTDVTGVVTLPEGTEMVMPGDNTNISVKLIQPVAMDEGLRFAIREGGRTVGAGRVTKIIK

Chain of EF-Ts (Escherichia coli) (P0A6P1 2-283): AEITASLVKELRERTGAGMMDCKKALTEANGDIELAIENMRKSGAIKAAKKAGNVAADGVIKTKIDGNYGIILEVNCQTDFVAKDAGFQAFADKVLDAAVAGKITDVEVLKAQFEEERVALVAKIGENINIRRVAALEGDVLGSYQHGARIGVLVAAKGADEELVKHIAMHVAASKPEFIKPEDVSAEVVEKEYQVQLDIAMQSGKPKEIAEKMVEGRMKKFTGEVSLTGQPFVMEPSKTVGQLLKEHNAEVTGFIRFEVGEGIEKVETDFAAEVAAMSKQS
T1 sequence (P9WNN1 whole entry): as the sequence (P9WNN1 whole entry) above

For `C=CC(=O)Nc1cc(Nc2nccc(-c3cn(C)c4ccccc34)n2)c(OC)cc1N(C)CCN(C)C` [Osimertinib], the Kd (EF-Tu) was 207000 nM.

For EF-Tu (from UniProt P0CE47), the Kd (EF-Ts (Escherichia coli)) is given as 2 nM.

B1: Mycobacterium tuberculosis elongation factor EF-Ts (natural protein)
chain: MANFTAADVKRLRELTGAGMLACKNALAETDGDFDKAVEALRIKGAKDVGKRAERATAEGLVAAKDGALIELNCETDFVAKNAEFQTLADQVVAAAAAAKPADVDALKGASIGDKTVEQAIAELSAKIGEKLELRRVAIFDGTVEAYLHRRSADLPPAVGVLVEYRGDDAAAAHAVALQIAALRARYLSRDDVPEDIVASERRIAEETARAEGKPEQALPKIVEGRLNGFFKDAVLLEQASVSDNKKTVKALLDVAGVTVTRFVRFEVGQA
notes: also called Mtb EF-Ts
In the case of B1, the Kd [1] is reported as roughly 1360 nM and the “stoichiometry N” value [1] is reported as 1.

— PMC9529903, “Structural insights of the elongation factor EF-Tu complexes in protein translation of Mycobacterium tuberculosis” (Communications Biology, 2022)
